Patent US20070196860

Assays:
[1] = tested on: SEQ ID NO. 42, Ac-SxPGIYAAPFAKKK-NH2
[2] = tested on: SEQ ID NO. 48, Ac-EEEEYIQdPSxG-NH2
[3] = tested on: SEQ ID NO. 27, Ac-SxPGSFRRR-NH2
[4] = tested on: SEQ ID NO. 30, Ac-ALKLSRYPSFdPSxG-NH2
[5] = tested on: SEQ ID NO. 41, Ac-SxPGSDDDDD-NH2

MK2 enzyme, sequence (P49137 whole entry): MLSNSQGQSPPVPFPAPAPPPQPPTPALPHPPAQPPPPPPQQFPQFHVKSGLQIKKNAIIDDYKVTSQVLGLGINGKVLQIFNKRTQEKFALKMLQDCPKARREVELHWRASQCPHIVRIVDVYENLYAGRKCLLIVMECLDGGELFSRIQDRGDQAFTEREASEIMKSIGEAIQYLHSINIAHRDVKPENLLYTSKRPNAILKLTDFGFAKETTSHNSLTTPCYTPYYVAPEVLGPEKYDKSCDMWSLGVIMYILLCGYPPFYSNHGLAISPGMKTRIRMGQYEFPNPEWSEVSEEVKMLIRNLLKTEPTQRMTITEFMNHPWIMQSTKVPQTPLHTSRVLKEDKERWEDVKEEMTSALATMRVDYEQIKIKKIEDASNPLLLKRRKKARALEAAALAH

p70-S6K
reaction rate, control treated MCF-7 lysate [1]: the control treated sample had a markedly reduced rate of 0.12 RFU/sec | reaction rate, insulin-treated MCF-7 lysate [1]: The insulin-treated sample showed a reaction rate of 1.13 RFU/sec

c-Src
reaction rate, c-Src transfected CEF lysate [2]: The c-Src transfected CEF sample showed a reaction rate of 50 RFU/sec | reaction rate, mock transfected (control) CEF lysate [2]: the control treated sample had a markedly reduced rate of 0.048 RFU/sec

MK2 enzyme
fluorescence signal at plateau; cascade reaction started by B-Raf captured from NGF-treated PC12 lysate [3]: fluorescence signals that reached a plateau at 150 minutes of incubation (3200 RFU) | fluorescence signal at plateau; cascade reaction started by ERK1/2 captured from PDGF-treated NIH3T3 lysate [3]: a fluorescence signal of 3000 RFU that reached a plateau at 335 minutes of incubation | fluorescence signal at plateau; cascade reaction started by MEK1 captured from PDGF-treated NIH3T3 lysate [3]: fluorescence signal of 3650 RFU that reached a plateau at 250 minutes of incubation | fluorescence signal at plateau; cascade reaction started by p38 MAPK captured from anisomycin treated RAW lysate [3]: fluorescence signal of 3350 RFU that reached a plateau at 60 minutes of incubation | fluorescence signal; cascade reaction started by ERK1/2 captured from control NIH3T3 lysate [3]: the control group produced fluorescence signal of 845 RFU | fluorescence signal; cascade reaction started by MEK1 captured from control NIH3T3 lysate [3]: the control group produced fluorescence signal of 1050 RFU | fluorescence signal; cascade reaction started by p38 MAPK captured from control RAW lysate [3]: the control group produced fluorescence signal of 1250 RFU

RSK
reaction rate, PMA-treated HeLa lysate [4]: The PMA-treated sample showed a reaction rate of 3.17 RFU/sec | reaction rate, control treated HeLa lysate [4]: the control treated sample had a markedly reduced rate of 0.64 RFU/sec

Erk1/2 kinase
reaction rate, PDGF-treated NIH3T3 lysate [5]: The PDGF-treated sample showed a reaction rate of 1.55 RFU/sec | reaction rate, control treated NIH3T3 lysate [5]: the control treated sample had a markedly reduced rate of 0.27 RFU/sec
